Test results from doi:10.1101/481887.

Experiments:
Gly-C2-iLID = assay: confocal imaging of light-induced recruitment to GUV membranes
[1] = target: COPY^o2 (Atto532-stathmin-Atto647N); assay: other fluorescence titration
phosphorylated COPY^o2 = assay: other fluorescence titration

Kd (Gly-C2-iLID) [nM]	KD, high affinity site [1] [nM]	KD, low affinity site [1] [nM]	k off,stath (1:1 stathmin-tubulin complex; site not named) [1] [s⁻¹]	k on,stath (1:1 stathmin-tubulin complex; site not named) [1] [s⁻¹]	stoichiometry N [1]	k off,p-stath (1:1 phosphorylated stathmin-tubulin complex; site not named) (phosphorylated COPY^o2) [s⁻¹]	k on,p-stath (1:1 phosphorylated stathmin-tubulin complex; site not named) (phosphorylated COPY^o2) [s⁻¹]	Substance
360	–	–	–	–	–	–	–	SspB (Stringent starvation protein B) (from UniProt P0AFZ3 1-165) (natural protein)
–	30	2000	0.048	16	2	2.3	1.8	α,β-tubulin dimers (from UniProt P02550 1-451; P02554 1-445) (complex)
